Experimental data taken from paper PMC8311663 (Molecular cell, 2021).

T1: Mycobacterium tuberculosis RNA polymerase β subunit (M. tuberculosis, UniProt P9WGY9 1-1178)
T1 sequence: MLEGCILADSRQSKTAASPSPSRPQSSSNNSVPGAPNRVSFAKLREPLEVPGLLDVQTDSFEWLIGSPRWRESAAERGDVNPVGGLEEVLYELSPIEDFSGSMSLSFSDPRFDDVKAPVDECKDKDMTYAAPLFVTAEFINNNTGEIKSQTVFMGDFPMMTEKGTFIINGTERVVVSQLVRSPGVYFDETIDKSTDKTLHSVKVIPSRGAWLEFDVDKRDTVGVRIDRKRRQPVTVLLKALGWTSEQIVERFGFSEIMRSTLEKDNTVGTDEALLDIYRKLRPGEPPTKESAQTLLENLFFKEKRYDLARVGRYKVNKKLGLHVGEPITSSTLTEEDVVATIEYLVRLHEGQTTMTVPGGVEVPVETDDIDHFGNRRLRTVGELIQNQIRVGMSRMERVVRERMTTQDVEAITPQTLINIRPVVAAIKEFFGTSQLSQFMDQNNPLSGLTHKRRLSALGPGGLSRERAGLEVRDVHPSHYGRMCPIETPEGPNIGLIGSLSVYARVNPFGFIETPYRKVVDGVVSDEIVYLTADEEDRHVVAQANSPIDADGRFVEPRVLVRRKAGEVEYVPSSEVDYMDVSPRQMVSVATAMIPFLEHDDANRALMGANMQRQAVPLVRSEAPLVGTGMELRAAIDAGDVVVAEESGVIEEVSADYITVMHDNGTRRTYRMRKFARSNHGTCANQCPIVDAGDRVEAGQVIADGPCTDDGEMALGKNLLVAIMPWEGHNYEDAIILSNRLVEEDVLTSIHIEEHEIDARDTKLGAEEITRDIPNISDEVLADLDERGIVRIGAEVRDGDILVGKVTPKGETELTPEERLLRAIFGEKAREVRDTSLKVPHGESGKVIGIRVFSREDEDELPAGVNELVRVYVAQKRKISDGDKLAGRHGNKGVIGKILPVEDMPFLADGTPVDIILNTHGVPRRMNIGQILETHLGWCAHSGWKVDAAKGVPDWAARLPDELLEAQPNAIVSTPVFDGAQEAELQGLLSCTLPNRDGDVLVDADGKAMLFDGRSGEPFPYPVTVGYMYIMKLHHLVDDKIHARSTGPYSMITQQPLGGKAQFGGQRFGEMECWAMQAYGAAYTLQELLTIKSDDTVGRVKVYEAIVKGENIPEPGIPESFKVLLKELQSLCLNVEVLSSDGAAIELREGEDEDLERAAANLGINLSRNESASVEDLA

T2: Mycobacterium tuberculosis σ^A (co-expressed with RbpA) (M. tuberculosis, UniProt P9WGI1)
T2 sequence: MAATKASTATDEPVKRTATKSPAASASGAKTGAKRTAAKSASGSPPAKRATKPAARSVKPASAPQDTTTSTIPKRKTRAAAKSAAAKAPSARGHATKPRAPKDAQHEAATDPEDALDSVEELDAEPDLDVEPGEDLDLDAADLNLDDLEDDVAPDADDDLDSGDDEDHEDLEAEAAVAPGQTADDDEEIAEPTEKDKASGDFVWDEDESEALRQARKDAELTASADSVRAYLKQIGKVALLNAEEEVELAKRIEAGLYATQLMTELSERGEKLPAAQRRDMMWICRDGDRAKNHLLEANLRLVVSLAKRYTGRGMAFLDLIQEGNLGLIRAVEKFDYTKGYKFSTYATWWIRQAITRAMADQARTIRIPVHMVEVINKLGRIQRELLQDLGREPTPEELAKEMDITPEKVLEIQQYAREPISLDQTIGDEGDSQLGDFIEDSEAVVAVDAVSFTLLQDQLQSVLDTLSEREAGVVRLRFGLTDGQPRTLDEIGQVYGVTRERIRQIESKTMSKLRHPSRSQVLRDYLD

B1: Mycobacterium tuberculosis CarD (natural protein)
chain: MIFKVGDTVVYPHHGAALVEAIETRTIKGEQKEYLVLKVAQGDLTVRVPAENAEYVGVRDVVGQEGLDKVFQVLRAPHTEEPTNWSRRYKANLEKLASGDVNKVAEVVRDLWRRDQERGLSAGEKRMLAKARQILVGELALAESTDDAKAETILDEVLAAAS
B2: Mycobacterium tuberculosis RbpA (co-expressed with σ^A) (natural protein)
chain: MADRVLRGSRLGAVSYETDRNHDLAPRQIARYRTDNGEEFEVPFADDAEIPGTWLCRNGMEGTLIEGDLPEPKKVKPPRTHWDMLLERRSIEELEELLKERLELIRSRRRG
B3: Mycobacterium tuberculosis RbpA (expressed alone from pET20b) (natural protein)
chain: MADRVLRGSRLGAVSYETDRNHDLAPRQIARYRTDNGEEFEVPFADDAEIPGTWLCRNGMEGTLIEGDLPEPKKVKPPRTHWDMLLERRSIEELEELLKERLELIRSRRRG
B4: Mycobacterium tuberculosis σ^A (Strep-tag II-σ^A, co-expressed with WhiB7) (natural protein)
chain: AATKASTATDEPVKRTATKSPAASASGAKTGAKRTAAKSASGSPPAKRATKPAARSVKPASAPQDTTTSTIPKRKTRAAAKSAAAKAPSARGHATKPRAPKDAQHEAATDPEDALDSVEELDAEPDLDVEPGEDLDLDAADLNLDDLEDDVAPDADDDLDSGDDEDHEDLEAEAAVAPGQTADDDEEIAEPTEKDKASGDFVWDEDESEALRQARKDAELTASADSVRAYLKQIGKVALLNAEEEVELAKRIEAGLYATQLMTELSERGEKLPAAQRRDMMWICRDGDRAKNHLLEANLRLVVSLAKRYTGRGMAFLDLIQEGNLGLIRAVEKFDYTKGYKFSTYATWWIRQAITRAMADQARTIRIPVHMVEVINKLGRIQRELLQDLGREPTPEELAKEMDITPEKVLEIQQYAREPISLDQTIGDEGDSQLGDFIEDSEAVVAVDAVSFTLLQDQLQSVLDTLSEREAGVVRLRFGLTDGQPRTLDEIGQVYGVTRERIRQIESKTMSKLRHPSRSQVLRDYLD
B5: Mycobacterium tuberculosis WhiB7 (6His-WhiB7) (natural protein)
chain: MSVLTVPRQTPRQRLPVLPCHVGDPDLWFADTPAGLEVAKTLCVSCPIRRQCLAAALQRAEPWGVWGGEIFDQGSIVSHKRPRGRPRKDAVA

Legend:
Assay in all cases: cryo-EM structure
[1] = molecular target: T1, Mycobacterium tuberculosis RNA …
[2] = molecular target: T2, Mycobacterium tuberculosis σ^A …
[3] = molecular target: B4
[4] = molecular target: Mycobacterium tuberculosis RNA polymerase β’ subunit (M. tuberculosis, UniProt P9WGY7)

Row | Binder | binding result [1] | binding result [2] | binding result [3] | binding result [4]
1 | B1 | binds |  |  | 
2 | B2 |  | binds |  | 
3 | B3 |  |  | binds | 
4 | B4 | binds |  |  | binds
5 | B5 |  |  | binds | binds
